Laboratory results from patent US6642353B1, “Peptide ligands for the erythropoietin receptor” (Chugai Seiyaku Kabushiki Kaisha, priority 2000, dated 2003).
Positions of bridges follow the written chain, without caps; N, C: chain ends. Residues, ends and D or L forms follow the SMILES beside them. No end group written: not given here.

Target: T1, chimeric Ig-EPOR protein (human; murine, UniProt P19235 25-250)
T1 construct: extracellular domain; Secreted from COS-7 cells transfected with pcDNA3-IgG1-EPOR; major species about 59 kDa; also called IgG-EPOR; chimeric receptor; not shown: hinge region, CH2 and CH3 domains of the murine IgG1 heavy chain
T1 sequence (looked up): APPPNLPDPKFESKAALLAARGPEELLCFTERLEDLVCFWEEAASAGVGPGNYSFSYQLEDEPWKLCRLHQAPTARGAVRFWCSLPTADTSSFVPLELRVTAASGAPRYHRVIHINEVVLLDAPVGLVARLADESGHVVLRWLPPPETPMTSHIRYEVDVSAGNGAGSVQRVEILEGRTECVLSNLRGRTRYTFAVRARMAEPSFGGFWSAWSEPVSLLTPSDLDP
Assay: biopanning of the ERB1 evolved library with Ig-EPOR (FIG. 4)
Conditions: not given
Procedure: The beads were washed three times in TBST (Tris buffered saline containing 0.1% (v/v) TWEEN® 20) and then suspended in 1 ml blocking medium (TBS SUPERBLOCK®). Phage in 100 μl aliquots containing about 1 ×10^10 plaque forming units (pfu) were added to the beads and the mixtures rotated gently for 2 hrs at room temperature. After washing the beads five times in TBST, phage were eluted with 300 μl of 50 mM glycine buffer (pH 2.2) for 10 min at room temperature. Eluted phage were immediately neutralized with 8 μl 2M Tris base that had not been pH-adjusted, mixed and stored at 4° C. Phage isolated by biopanning were amplified by mixing equal volumes of eluted phage and an overnight culture of E. coli strain JS5, diluting the mixture in 20 ml 2xYT containing tetracycline (12.0 μg/ml), and incubating overnight with shaking at 37° C. The resulting phage lysates were cleared of cell debris by centrifugation for 5 min in a microfuge, and 100 μl of the resulting supernatant lysate was used for a subsequent round of biopanning. All phage titering was carried out using JS5 bacteria plated on 2xYT top agar and agar plates.
Several random phage clones also were isolated from the evolved library, to represent non-binding clones.

| Molecule | binding result |
| --- | --- |
| GKEVCRRGWVGHCQEWPMDEYTRNPSHPVPHNSRHKTP (not shown: M13 phage pIII coat protein) [phage clone B3] | binds |
| DLEGCRLGWVGHCNVWGGDEYTKRTSHSVPPSHKSKLL (not shown: M13 phage pIII coat protein) [phage clone B19] | binds |
| QVDTCTRGWVGHCNAWMGDEYAKTPGLPMPQSDYLKPR (not shown: M13 phage pIII coat protein) [phage clone B15] | binds |
| YSDVCRRGWVGHCEDWLGDEYSSQPSYALPHSTSLNPR (not shown: M13 phage pIII coat protein) [phage clone B18] | binds |
| DLEVCRGGWVGHCKDWIWDEYARNPRYPDPQRKEVKSP (not shown: M13 phage pIII coat protein) [phage clone B10] | binds |
| DFEDCQGGWVGHCNDWLGDEYARHPRYGATQTLSVNRH (not shown: M13 phage pIII coat protein) [phage clone B9] | binds |
| DVEVCRGGWVGHCNAWLRDEYNRQPKKPVQQQVVYSTR (not shown: M13 phage pIII coat protein) [phage clone B16] | binds |
| AKVVCRNGWVGHCSAWLTDEYESNPNTRIPNTFDMKTP (not shown: M13 phage pIII coat protein) [phage clone B21] | binds |
| SLEPCRGGWVGHCNEWQRDEYAINPKWPNAPIEDPNPL (not shown: M13 phage pIII coat protein) [phage clone B6] | binds |
| DLAGCRRGWVGHCSEWLRDEYTSNPRYPVAPSYRLQPP (not shown: M13 phage pIII coat protein) [phage clone B20] | binds |
| LLQMCSPGWVGHCNDWPRDEYANNPPNPVVDRQALTPP (not shown: M13 phage pIII coat protein) [phage clone B17] | binds |
| DVHECRPGWVGHCKDWLSDEYASNRRSPEPHRNYPIPP (not shown: M13 phage pIII coat protein) [phage clone B1] | binds |
| EGEVCLPGWVGHCKYWLMDEYANIPRNPTPRSNELKPP (not shown: M13 phage pIII coat protein) [phage clone B13] | binds |

Target: T2, chimeric Ig-EPOR protein (Homo sapiens, UniProt P19235)
T2 construct: a fusion protein having domains corresponding to murine IgG1 and the extracellular domain (ECD) of the human EPOR; made in house; secreted into the medium
Assay: peptide inhibition ELISA (binding of Ig-EPOR to EPO-coated plates)
Conditions: not given
Procedure: The wells were washed three times with PBS containing 0.05% (v/v) TWEEN® 20 non-ionic detergent, and then blocked with 1% (w/v) BSA and 0.05% TWEEN® 20 in PBS (blocking buffer) to prevent non-specific binding. Excess blocking buffer was removed by washing once. Culture media was serially diluted in blocking buffer, and 50 μl from each dilution was added to the coated and blocked wells. Wells receiving undiluted media served as a control. A set of uncoated wells also received the diluted cell-free media. Plates were then incubated for 2 hours at room temperature, and washed three times as described above. After removing unbound chimeric receptor by washing, bound chimeric protein was assayed using 100 μl of the HRP labeled anti-murine IgG antibody, substantially as described above. Color development was initiated by addition of 100 μl of the TMB peroxidase substrate, and the extent of the peroxidase reaction measured spectrophotometrically at 450 nm and 650 nm, as described above.
Synthetic peptides having the sequences […] (SEQ ID NO:81), and […] (SEQ ID NO:82) were synthesized in the cyclic (disulfide-bonded) form using standard procedures (Peninsula Laboratories, Belmont, Calif.). The 18-mer peptide sequences were derived from the B7 and B8 clones, and the peptides are referred to herein as “ERB1-7” (SEQ ID NO:81) and “ERB1-8” (SEQ ID NO:82), respectively. The structures of the two purified peptides, each being greater than 95% pure as judged by HPLC, were confirmed by mass spectrometry. […] Such synthetic peptides are EPO mimetics.
Synthetic peptides corresponding to the sequence of ERB1-7, but missing either one, two, three or four N-terminal amino acids were tested in the peptide inhibition ELISA protocol. The following peptides were synthesized and tested substantially as described in Example 8: 18-mer peptide ERB1-7, consisting of […] (SEQ ID NO:81);

| Molecule | IC50 |
| --- | --- |
| CC(C)C[C@H](NC(=O)[C@H](Cc1c[nH]c2ccccc12)NC(=O)[C@H](Cc1ccc(O)cc1)NC(=O)[C@H](CC(N)=O)NC(=O)[C@@H]1CSSC[C@H](NC(=O)[C@H](C)NC(=O)[C@H](CCC(=O)O)NC(=O)[C@@H](NC(=O)[C@@H](N)CC(=O)O)C(C)C)C(=O)NCC(=O)NCC(=O)NCC(=O)N[C@@H](Cc2c[nH]c3ccccc23)C(=O)N[C@@H](C(C)C)C(=O)NCC(=O)N[C@@H](Cc2c[nH]cn2)C(=O)N1)C(=O)N[C@@H](CCCNC(=N)N)C(=O)O [ERB1-8] (H-DVEACGGGWVGHCNYWLR-OH; disulfide 5-13; N-terminus and C-terminus assumed) | ~45 nM |
| CC(C)[C@@H]1NC(=O)[C@H](Cc2c[nH]c3ccccc23)NC(=O)CNC(=O)[C@H](CCCNC(=N)N)NC(=O)[C@H](CCCNC(=N)N)NC(=O)[C@@H](NC(=O)CNC(=O)[C@H](CCC(=O)O)NC(=O)[C@H](CCCNC(=N)N)NC(=O)[C@@H](N)CC(=O)O)CSSC[C@@H](C(=O)N[C@@H](CCCCN)C(=O)N[C@@H](C)C(=O)N[C@@H](Cc2c[nH]c3ccccc23)C(=O)N[C@@H](Cc2ccccc2)C(=O)N[C@@H](CC(N)=O)C(=O)O)NC(=O)[C@H](CCC(N)=O)NC(=O)CNC1=O [ERB1-7] (H-DREGCRRGWVGQCKAWFN-OH; disulfide 5-13; N-terminus and C-terminus assumed) | ~45 nM |

Same assay, conditions: N-terminal truncations of ERB1-7

| Molecule | EPOR binding activity |
| --- | --- |
| GCRRGWVGQCKAWFN [7N-3] | abolished EPOR binding activity |
| CRRGWVGQCKAWFN [7N-4] | abolished EPOR binding activity |

Target: T1, chimeric Ig-EPOR protein
Assay: phage ELISA, relative to ERB1
Conditions: not given
Procedure: (§1) To better characterize the phage isolates having binding specificity for the EPOR, we compared the relative affinities of the binding clones presented in FIG. 4, using a phage ELISA procedure. Phage stocks of the binding clones were titered in triplicate to accurately determine the concentration of pfu/ml for each lysate. Different isolates were then assayed by ELISA using normalized phage concentrations so that all clones were tested using equivalent numbers of phage.

| Molecule | relative affinity (Rel. Aff., ERB1 = 1.0) |
| --- | --- |
| SVDVCNQGGVGRCNDGLGDEYASKPSYQEAPRYNPNLR (not shown: M13 phage pIII coat protein) [phage clone N9] | < 0.1 |
| ELDMLRGGGVGQSKESLRDEYDHKTSTPVPPNQKLPPP (not shown: M13 phage pIII coat protein) [phage clone N4] | < 0.1 |
| GWAGCRSGGAGQCKEGAGDEYAENPSYPVPPRKHLNRL (not shown: M13 phage pIII coat protein) [phage clone N2] | < 0.1 |
| EFVVWPRGWVGHCKGCRVDEYSGDPSNLEAQTHDMNFQ (not shown: M13 phage pIII coat protein) [phage clone N7] | < 0.1 |
| ALDVGRWDGVGHCKGCLKDEYTTLDSKNNPQISQVSPT (not shown: M13 phage pIII coat protein) [phage clone N11] | < 0.1 |
| DIAVCRGGCVGLCEEGLRDEYACNVKKPVPHSYKLNTP (not shown: M13 phage pIII coat protein) [phage clone N13] | < 0.1 |
| EWVYSRQSWGGQWKDGVRDEYTMTPGDPVANKYSLMTP (not shown: M13 phage pIII coat protein) [phage clone N6] | < 0.1 |
| NSDVTRRGWADHWREWNWDEYASTPTHPASHSSYLNPP (not shown: M13 phage pIII coat protein) [phage clone N5] | < 0.1 |
| RLEDGDEGRVWHSSDLLSDEYASTPSYPLTPNYYEYPP (not shown: M13 phage pIII coat protein) [phage clone N1] | < 0.1 |
| DVEVGRRACVGYCQEFLRDEYTATPSYPDKHSNYLNPP (not shown: M13 phage pIII coat protein) [phage clone N12] | < 0.1 |
| DFEGSLREWDGDWPEWLRDEYARPSYPNPHKANQKPP (not shown: M13 phage pIII coat protein) [phage clone N10] | < 0.1 |
| GLNICRPGWVGHCNDSLRDEYATNPRTPGPLSYNLQPT (not shown: M13 phage pIII coat protein) [phage clone N8] | < 0.1 |
| DLNVGCPGYVGHCADWLGDEYPVHPNPEVPQTLNLKPH (not shown: M13 phage pIII coat protein) [phage clone N3] | < 0.1 |

Target: T1, chimeric Ig-EPOR protein
Assay: peptide inhibition ELISA: Ig-EPOR binding to EPO-coated plates
Conditions: not given
Description: Thus, the consensus 12-mer peptide sequence given by SEQ ID NO:12 likely was necessary but not sufficient to create synthetic peptides having high affinity for the EPOR.

| Molecule | IC50 |
| --- | --- |
| REGCRRGWVGQCKAWFN (disulfide 4-12 (inferred), N-terminal truncation of ERB1-7) [17-mer peptide 7N-1] | 91 nM |

Target: T1, chimeric Ig-EPOR protein
Assay: phage ELISA with normalized phage concentrations
Conditions: not given
Procedure: as §1

| Molecule | fold affinity relative to the parent ERB1 clone |
| --- | --- |
| DVEACGGGWVGHCNYWLRDEYASKPIKQVPPGNHNQPS (not shown: M13 phage pIII coat protein) [phage clone B8] | ~20 fold |
| DREGCRRGWVGQCKAWFNDEYAKPPKKPFRNSYSLGPA (not shown: M13 phage pIII coat protein) [phage clone B7] | ~20 fold |
